Experimental data reported in the supplement of paper PMC6755084.

B1: minF1; a variant is named by its letters at N, in order (parent)
chain: GAGACCGCAACTGAAAAGTTGTTNNNNAANNNNNGGNTNAATTTCTGCACGTAGAAGCAAAAGGC

Variants of: B1
Experiment: fraction ligated after 30 min (ligated reads / total reads); higher = more ligase activity
Settings: with F1*subA RNA substrate (template-directed ligation), 42 °C
Summary of the method: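 Using barcoded primers for reverse transcription and a MiSeq for sequencing, gel-separated ligated and unligated RNAs of minimized ligase ribozyme variants were read, with core-base filtering at quality ≥30. Fraction ligated per variant was defined as ligated reads over total reads.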

Variant | fraction ligated
GAGACCGCAACTGAAAAGTTGTATCAAAATGGATGGTTGAATTTCTGCACGTAGAAGCAAAAGGC [TCAATGGATTG T23A] | 0.0162
GAGACCGCAACTGAAAAGTTGTTTCAAAATGGAGGGTTGAATTTCTGCACGTAGAAGCAAAAGGC [TCAATGGAGTG] | 0.00287
GAGACCGCAACTGAAAAGTTGTTTAGAAATGATGGGTTGAATTTCTGCACGTAGAAGCAAAAGGC [TAGATGATGTG] | 0.00308
GAGACCGCAACTGAAAAGTTGTATCAAATGGATGGGTTGAATTTCTGCACGTAGAAGCAAAAGGC [TCAAGGATGTG T23A A29T] | 0.00621
GAGACCGCAACTGAAAAGTTGTACAGAAATGGATGGTTGAATTTCTGCACGTAGAAGCAAAAGGC [CAGATGGATTG T23A] | 0.00704
GAGACCGCAACTGAAAAGTTGTATCAAAATGGAGGGTTGAATTTCTGCACGTAGAAGCAAAAGGC [TCAATGGAGTG T23A] | 0.00168
GAGACCGCAACTGAAAAGTTGTATAGAAATGATGGGTTGAATTTCTGCACGTAGAAGCAAAAGGC [TAGATGATGTG T23A] | 0.00371
GAGACCGCAACTGAAAAGTTGTATAGAAATGGATGGTTGAATTTCTGCACGTAGAAGCAAAAGGC [TAGATGGATTG T23A] | 0.00337
GAGACCGCAACTGAAAAGTTGTTACAAAAGGATGGGTTGAATTTCTGCACGTAGAAGCAAAAGGC [ACAAGGATGTG] | 0.00477
GAGACCGCAACTGAAAAGTTGTATCAAAATGATGGGTTGAATTTCTGCACGTAGAAGCAAAAGGC [TCAATGATGTG T23A] | 0.00128
GAGACCGCAACTGAAAAGTTGTATCAAAATGGATGGGTTAATTTCTGCACGTAGAAGCAAAAGGC [TCAATGGATGT T23A] | 0.00522
GAGACCGCAACTGAAAAGTTGTTCAGAAATGGTGGGTTGAATTTCTGCACGTAGAAGCAAAAGGC [CAGATGGTGTG] | 0.00442
GAGACCGCAACTGAAAAGTTGTTTCAAAATGGATGGGTTAATTTCTGCACGTAGAAGCAAAAGGC [TCAATGGATGT] | 0.00761
GAGACCGCAACTGAAAAGTTGTACAGAAATGATGGGTTGAATTTCTGCACGTAGAAGCAAAAGGC [CAGATGATGTG T23A] | 0.00284
GAGACCGCAACTGAAAAGTTGTACAGAAATGGATGGGTTGATTTCTGCACGTAGAAGCAAAAGGC [CAGATGGATGT T23A A40G] | 0.0214
GAGACCGCAACTGAAAAGTTGTTTAGAAATGGATGGTTGAATTTCTGCACGTAGAAGCAAAAGGC [TAGATGGATTG] | 0.00552
GAGACCGCAACTGAAAAGTTGTTCAGAAATGATGGGTTGAATTTCTGCACGTAGAAGCAAAAGGC [CAGATGATGTG] | 0.00402
GAGACCGCAACTGAAAAGTTGTTCAGAAATGGAGGGTTGAATTTCTGCACGTAGAAGCAAAAGGC [CAGATGGAGTG] | 0.00344
GAGACCGCAACTGAAAAGTTGTTACAAAATGGATGGTTGAATTTCTGCACGTAGAAGCAAAAGGC [ACAATGGATTG] | 0.0118
GAGACCGCAACTGAAAAGTTGTTTAGAAATGGTGGGTTGAATTTCTGCACGTAGAAGCAAAAGGC [TAGATGGTGTG] | 0.0039
GAGACCGCAACTGAAAAGTTGTTCAGAAAGGATGGGTTGAATTTCTGCACGTAGAAGCAAAAGGC [CAGAGGATGTG] | 0.00332

Variant | fraction ligated
GAGACCGCAACTGAAAAGTTGTATAAAATGGATGGGTTGAATTTCTGCACGTAGAAGCAAAAGGC [TAAAGGATGTG T23A A29T] | 0.00526
GAGACCGCAACTGAAAAGTTGTTTAGAAATGGAGGGTTGAATTTCTGCACGTAGAAGCAAAAGGC [TAGATGGAGTG] | 0.0023
GAGACCGCAACTGAAAAGTTGTATAGAAATGGAGGGTTGAATTTCTGCACGTAGAAGCAAAAGGC [TAGATGGAGTG T23A] | 0
GAGACCGCAACTGAAAAGTTGTTACAAAATGGAGGGTTGAATTTCTGCACGTAGAAGCAAAAGGC [ACAATGGAGTG] | 0.00318
GAGACCGCAACTGAAAAGTTGTATAGAAAGGATGGGTTGAATTTCTGCACGTAGAAGCAAAAGGC [TAGAGGATGTG T23A] | 0.00277
GAGACCGCAACTGAAAAGTTGTATAGAAATGGATGGGTTGATTTCTGCACGTAGAAGCAAAAGGC [TAGATGGATGT T23A A40G] | 0.00768
GAGACCGCAACTGAAAAGTTGTTACAAATGGATGGGTTGAATTTCTGCACGTAGAAGCAAAAGGC [ACAAGGATGTG A29T] | 0.00252
GAGACCGCAACTGAAAAGTTGTACAGAAATGGAGGGTTGAATTTCTGCACGTAGAAGCAAAAGGC [CAGATGGAGTG T23A] | 0.00336
GAGACCGCAACTGAAAAGTTGTTCAGAAATGGATGGTTGAATTTCTGCACGTAGAAGCAAAAGGC [CAGATGGATTG] | 0.00607
GAGACCGCAACTGAAAAGTTGTATCAAAAGGATGGGTTGAATTTCTGCACGTAGAAGCAAAAGGC [TCAAGGATGTG T23A] | 0.00271
GAGACCGCAACTGAAAAGTTGTACAGAAATGGATGGGTTAATTTCTGCACGTAGAAGCAAAAGGC [CAGATGGATGT T23A] | 0.00559
GAGACCGCAACTGAAAAGTTGTATCAAAATGGTGGGTTGAATTTCTGCACGTAGAAGCAAAAGGC [TCAATGGTGTG T23A] | 0.00318
GAGACCGCAACTGAAAAGTTGTTTCAAAATGGATGGTTGAATTTCTGCACGTAGAAGCAAAAGGC [TCAATGGATTG] | 0.0203
GAGACCGCAACTGAAAAGTTGTTTCAAAATGATGGGTTGAATTTCTGCACGTAGAAGCAAAAGGC [TCAATGATGTG] | 0.00347
GAGACCGCAACTGAAAAGTTGTTACAAAATGGTGGGTTGAATTTCTGCACGTAGAAGCAAAAGGC [ACAATGGTGTG] | 0.00249
GAGACCGCAACTGAAAAGTTGTATAGAAATGGATGGGTTAATTTCTGCACGTAGAAGCAAAAGGC [TAGATGGATGT T23A] | 0.00257
GAGACCGCAACTGAAAAGTTGTTAAGAAATGGAGGGTTGAATTTCTGCACGTAGAAGCAAAAGGC [AAGATGGAGTG] | 0.000852
GAGACCGCAACTGAAAAGTTGTTTCAAAATGGTGGGTTGAATTTCTGCACGTAGAAGCAAAAGGC [TCAATGGTGTG] | 0.00313
GAGACCGCAACTGAAAAGTTGTACAGAAATGGTGGGTTGAATTTCTGCACGTAGAAGCAAAAGGC [CAGATGGTGTG T23A] | 0.0045
GAGACCGCAACTGAAAAGTTGTTCAGAATGGATGGGTTGAATTTCTGCACGTAGAAGCAAAAGGC [CAGAGGATGTG A29T] | 0.00872
GAGACCGCAACTGAAAAGTTGTATAGAAATGGTGGGTTGAATTTCTGCACGTAGAAGCAAAAGGC [TAGATGGTGTG T23A] | 0.00156
